Earlier results, collected in patent EP0759087B1, “COMPOSITIONS AND METHODS FOR TARGETING GENE DELIVERY VEHICLES” (CHIRON CORPORATION, priority 1994, dated 1995).
Where no end group is shown, it is not given here.

Target: receptor on melanocytes (Homo sapiens, UniProt Q01726)
Details: no source given, read-out: receptor affinity (KD)

Sequence of receptor on melanocytes (Q01726 whole entry): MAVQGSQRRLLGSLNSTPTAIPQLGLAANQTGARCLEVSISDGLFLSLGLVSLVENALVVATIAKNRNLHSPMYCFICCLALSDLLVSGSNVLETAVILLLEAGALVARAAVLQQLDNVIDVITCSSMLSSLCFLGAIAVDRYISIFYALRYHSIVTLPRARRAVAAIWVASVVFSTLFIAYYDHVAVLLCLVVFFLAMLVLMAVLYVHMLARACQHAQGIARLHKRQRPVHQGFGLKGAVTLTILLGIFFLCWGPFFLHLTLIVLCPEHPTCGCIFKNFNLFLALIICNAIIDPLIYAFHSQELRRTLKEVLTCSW

Kd: ~10 nM
Substance: S-Y-S-M-E-H-F-R-W-G-L-P-V-NH2 (SYSMEHFRWGLPV-NH2) [MSH, 13 amino acid peptide that is specifically recognized by a receptor on melanocytes]
